Data on 7 molecules can be found in patent US20250002945, “NEW TALE PROTEIN SCAFFOLDS WITH IMPROVED ON-TARGET/OFF-TARGET ACTIVITY RATIOS” (CELLECTIS SA, published 2025).

Some results are limits rather than exact numbers.

Assay in all cases: cell_activity; T cells, mostly above 70%
Holding throughout (conditions): tags: SV40 NLS; FokI fusion

The target in one series is T1, CD38 (1) left V2 TALEN (synthetic, UniProt Q56830 SEQ:15-719).
T1 chain: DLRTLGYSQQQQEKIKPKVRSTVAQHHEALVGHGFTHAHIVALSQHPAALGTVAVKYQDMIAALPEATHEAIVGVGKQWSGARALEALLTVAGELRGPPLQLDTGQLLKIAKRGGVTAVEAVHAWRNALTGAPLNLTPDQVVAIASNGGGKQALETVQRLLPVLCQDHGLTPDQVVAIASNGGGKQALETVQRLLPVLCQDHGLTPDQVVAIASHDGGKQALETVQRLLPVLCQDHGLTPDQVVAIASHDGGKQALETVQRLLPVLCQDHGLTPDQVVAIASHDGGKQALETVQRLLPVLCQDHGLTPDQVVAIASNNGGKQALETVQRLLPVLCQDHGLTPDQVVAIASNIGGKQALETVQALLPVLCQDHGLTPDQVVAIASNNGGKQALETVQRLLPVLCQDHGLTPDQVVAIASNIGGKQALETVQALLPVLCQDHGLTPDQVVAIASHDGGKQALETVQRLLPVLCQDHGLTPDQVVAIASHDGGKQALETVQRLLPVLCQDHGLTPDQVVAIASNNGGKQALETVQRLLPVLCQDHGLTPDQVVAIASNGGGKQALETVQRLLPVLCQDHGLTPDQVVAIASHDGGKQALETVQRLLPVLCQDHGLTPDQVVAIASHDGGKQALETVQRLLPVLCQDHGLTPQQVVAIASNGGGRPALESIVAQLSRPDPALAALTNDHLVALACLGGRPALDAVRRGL

The next series deals with T2, CD38 (1) right V2 TALEN (synthetic, UniProt Q56830 SEQ:15-719).
T2 chain: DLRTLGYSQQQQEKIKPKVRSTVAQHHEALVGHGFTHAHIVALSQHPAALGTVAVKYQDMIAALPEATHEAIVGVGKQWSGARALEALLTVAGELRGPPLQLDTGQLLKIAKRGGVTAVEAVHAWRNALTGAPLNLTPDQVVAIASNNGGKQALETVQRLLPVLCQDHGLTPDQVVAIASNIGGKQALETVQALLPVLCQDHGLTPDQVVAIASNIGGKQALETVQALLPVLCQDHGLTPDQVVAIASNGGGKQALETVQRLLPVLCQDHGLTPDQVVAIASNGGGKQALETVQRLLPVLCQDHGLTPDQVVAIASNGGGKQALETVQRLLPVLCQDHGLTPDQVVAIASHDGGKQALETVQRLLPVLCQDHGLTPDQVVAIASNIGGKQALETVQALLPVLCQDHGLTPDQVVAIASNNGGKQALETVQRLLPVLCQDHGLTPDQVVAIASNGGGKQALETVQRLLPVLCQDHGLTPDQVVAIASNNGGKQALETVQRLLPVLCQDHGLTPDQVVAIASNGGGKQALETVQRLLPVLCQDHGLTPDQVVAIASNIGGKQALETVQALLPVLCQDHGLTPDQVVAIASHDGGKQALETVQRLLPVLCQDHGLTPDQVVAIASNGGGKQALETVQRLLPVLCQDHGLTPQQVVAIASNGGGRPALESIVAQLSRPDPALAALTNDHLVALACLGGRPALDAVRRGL

The next series deals with T3, CD38 (2) left V2 TALEN (synthetic, UniProt Q56830 SEQ:15-719).
T3 chain: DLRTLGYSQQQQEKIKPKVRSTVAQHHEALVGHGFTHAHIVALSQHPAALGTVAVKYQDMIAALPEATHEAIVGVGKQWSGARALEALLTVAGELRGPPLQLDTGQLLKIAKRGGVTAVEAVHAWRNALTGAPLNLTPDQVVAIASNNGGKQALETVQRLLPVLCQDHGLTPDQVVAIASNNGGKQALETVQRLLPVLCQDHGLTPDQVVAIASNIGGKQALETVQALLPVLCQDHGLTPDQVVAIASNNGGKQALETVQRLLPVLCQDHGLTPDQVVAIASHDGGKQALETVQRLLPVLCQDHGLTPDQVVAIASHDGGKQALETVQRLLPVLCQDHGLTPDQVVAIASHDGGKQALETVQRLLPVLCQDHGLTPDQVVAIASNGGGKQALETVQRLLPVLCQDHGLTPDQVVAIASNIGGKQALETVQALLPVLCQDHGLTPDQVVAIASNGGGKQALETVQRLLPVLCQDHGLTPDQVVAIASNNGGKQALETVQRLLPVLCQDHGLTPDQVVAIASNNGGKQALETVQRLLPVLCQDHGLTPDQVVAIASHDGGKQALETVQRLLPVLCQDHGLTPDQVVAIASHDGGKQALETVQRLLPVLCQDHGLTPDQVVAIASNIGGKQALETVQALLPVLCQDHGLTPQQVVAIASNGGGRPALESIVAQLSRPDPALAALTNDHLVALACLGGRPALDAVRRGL

For the next series, the target named is T4, CISH (3) right V2 TALEN (synthetic, UniProt Q56830 SEQ:15-719).
T4 chain: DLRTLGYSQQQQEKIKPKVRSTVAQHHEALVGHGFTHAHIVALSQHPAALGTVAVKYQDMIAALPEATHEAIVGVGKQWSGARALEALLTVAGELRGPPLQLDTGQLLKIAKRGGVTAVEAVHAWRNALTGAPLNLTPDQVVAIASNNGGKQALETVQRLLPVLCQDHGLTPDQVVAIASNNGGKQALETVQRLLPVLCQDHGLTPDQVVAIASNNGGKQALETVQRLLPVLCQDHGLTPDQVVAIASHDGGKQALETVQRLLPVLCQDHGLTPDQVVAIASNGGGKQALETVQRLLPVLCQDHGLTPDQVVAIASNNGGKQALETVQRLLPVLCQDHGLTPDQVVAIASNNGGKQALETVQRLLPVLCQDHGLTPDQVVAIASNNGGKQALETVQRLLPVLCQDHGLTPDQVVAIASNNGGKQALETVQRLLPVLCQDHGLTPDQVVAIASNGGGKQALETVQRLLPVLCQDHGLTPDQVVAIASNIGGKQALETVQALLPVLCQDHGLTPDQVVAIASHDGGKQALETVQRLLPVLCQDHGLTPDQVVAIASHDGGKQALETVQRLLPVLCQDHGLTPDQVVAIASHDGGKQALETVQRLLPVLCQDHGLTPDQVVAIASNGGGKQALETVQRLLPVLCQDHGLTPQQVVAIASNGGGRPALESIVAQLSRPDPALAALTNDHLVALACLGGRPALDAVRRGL

Another series deals with T5, CD38 (2) right V2 TALEN (synthetic, UniProt Q56830 SEQ:15-719).
T5 chain: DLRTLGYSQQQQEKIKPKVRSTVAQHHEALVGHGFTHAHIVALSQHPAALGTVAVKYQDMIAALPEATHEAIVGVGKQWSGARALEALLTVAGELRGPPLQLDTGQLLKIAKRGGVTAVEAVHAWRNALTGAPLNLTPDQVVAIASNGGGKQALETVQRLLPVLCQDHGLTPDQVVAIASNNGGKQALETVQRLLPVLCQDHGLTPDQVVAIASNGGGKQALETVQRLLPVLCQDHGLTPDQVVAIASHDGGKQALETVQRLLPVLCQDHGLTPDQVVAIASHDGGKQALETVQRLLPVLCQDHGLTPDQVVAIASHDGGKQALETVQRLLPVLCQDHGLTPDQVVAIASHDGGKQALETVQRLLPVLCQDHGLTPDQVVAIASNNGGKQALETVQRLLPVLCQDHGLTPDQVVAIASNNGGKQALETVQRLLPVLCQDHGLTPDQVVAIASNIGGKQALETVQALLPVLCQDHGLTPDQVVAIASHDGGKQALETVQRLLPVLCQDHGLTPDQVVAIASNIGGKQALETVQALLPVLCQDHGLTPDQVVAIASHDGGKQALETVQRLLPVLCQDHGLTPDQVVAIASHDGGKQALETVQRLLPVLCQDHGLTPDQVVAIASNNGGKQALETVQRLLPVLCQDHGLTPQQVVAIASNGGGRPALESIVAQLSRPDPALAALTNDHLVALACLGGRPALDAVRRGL

Another series concerns the target T6, IgH (1) right V2 TALEN (synthetic, UniProt Q56830 SEQ:15-719).
T6 chain: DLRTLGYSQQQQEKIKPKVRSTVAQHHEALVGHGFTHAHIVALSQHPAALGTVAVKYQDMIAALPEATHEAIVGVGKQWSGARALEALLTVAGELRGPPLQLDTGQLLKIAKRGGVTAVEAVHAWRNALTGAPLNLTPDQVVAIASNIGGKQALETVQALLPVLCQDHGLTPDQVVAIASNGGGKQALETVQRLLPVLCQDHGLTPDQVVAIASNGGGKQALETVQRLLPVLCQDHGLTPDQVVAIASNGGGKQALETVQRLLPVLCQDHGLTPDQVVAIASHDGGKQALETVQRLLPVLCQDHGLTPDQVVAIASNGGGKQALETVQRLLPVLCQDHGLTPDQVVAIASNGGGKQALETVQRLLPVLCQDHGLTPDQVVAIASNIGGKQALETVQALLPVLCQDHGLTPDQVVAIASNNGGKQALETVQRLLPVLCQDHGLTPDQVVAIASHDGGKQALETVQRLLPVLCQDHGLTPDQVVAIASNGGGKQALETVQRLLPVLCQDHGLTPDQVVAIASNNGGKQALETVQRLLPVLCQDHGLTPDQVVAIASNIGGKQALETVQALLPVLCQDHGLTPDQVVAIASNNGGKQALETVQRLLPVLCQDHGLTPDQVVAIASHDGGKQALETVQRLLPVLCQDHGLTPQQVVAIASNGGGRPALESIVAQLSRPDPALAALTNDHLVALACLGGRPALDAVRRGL

The next series addresses T7, IgH (1) left V2 TALEN (synthetic, UniProt Q56830 SEQ:15-719).
T7 chain: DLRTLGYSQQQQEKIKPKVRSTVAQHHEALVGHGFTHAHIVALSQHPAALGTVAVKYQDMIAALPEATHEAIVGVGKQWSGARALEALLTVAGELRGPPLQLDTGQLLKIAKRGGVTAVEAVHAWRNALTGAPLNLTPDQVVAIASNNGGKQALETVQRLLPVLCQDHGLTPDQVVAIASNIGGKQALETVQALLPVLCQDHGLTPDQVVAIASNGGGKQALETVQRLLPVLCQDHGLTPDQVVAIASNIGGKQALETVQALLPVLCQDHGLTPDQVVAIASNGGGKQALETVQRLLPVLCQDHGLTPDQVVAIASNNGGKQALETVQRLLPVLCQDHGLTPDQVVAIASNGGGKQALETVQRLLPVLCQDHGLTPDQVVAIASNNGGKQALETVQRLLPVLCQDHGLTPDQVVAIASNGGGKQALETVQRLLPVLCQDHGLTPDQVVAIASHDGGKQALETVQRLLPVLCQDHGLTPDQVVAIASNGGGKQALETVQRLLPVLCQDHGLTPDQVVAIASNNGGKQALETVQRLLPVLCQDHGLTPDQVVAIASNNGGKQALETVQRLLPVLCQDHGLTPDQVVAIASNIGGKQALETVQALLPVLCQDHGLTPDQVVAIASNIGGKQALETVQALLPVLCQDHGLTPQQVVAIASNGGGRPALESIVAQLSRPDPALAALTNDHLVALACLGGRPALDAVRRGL

B1: CD38 (1) left half-site (dsDNA)
DNA 1: TTTCCCGAGACCGTCCT
DNA 2: AGGACGGTCTCGGGAAA
In the series with CD38 (1) left V2 TALEN, B1 came in with an activity of more than 50 % indels.

B2: CD38 (1) right half-site (dsDNA)
DNA 1: AAGTACACTGAAATTCA
DNA 2: TGAATTTCAGTGTACTT
The molecule B2 had an activity with CD38 (1) right V2 TALEN of more than 50 % indels.

B3: CD38 (2) left half-site (dsDNA)
DNA 1: TGGAGCCCTATGGCCAA
DNA 2: TTGGCCATAGGGCTCCA
Take B3: the activity with CD38 (2) left V2 TALEN was more than 50 % indels.

B4: CISH (3) right half-site (dsDNA)
DNA 1: GAGGGTACCCCAGCCCA
DNA 2: TGGGCTGGGGTACCCTC
In turn, B4 registered an activity in the series with CISH (3) right V2 TALEN of more than 50 % indels.

B5: CD38 (2) right half-site (dsDNA)
DNA 1: CCGGTGTCCGGGGACAA
DNA 2: TTGTCCCCGGACACCGG
B5: the activity in the series with CD38 (2) right V2 TALEN is more than 50 % indels.

B6: IgH (1) right half-site (dsDNA)
DNA 1: AGCTCAGCTAAGAAATA
DNA 2: TATTTCTTAGCTGAGCT
Regarding B6, the activity with IgH (1) right V2 TALEN was more than 50 % indels.

B7: IgH (1) left half-site (dsDNA)
DNA 1: TGATATGTGTCTGGAAT
DNA 2: ATTCCAGACACATATCA
The molecule B7 returned an activity in the series with IgH (1) left V2 TALEN of more than 50 % indels.
